Assay results from patent publication US20050053592.

T1: GST-Wts^68-414, Q9VA38
T1 chain: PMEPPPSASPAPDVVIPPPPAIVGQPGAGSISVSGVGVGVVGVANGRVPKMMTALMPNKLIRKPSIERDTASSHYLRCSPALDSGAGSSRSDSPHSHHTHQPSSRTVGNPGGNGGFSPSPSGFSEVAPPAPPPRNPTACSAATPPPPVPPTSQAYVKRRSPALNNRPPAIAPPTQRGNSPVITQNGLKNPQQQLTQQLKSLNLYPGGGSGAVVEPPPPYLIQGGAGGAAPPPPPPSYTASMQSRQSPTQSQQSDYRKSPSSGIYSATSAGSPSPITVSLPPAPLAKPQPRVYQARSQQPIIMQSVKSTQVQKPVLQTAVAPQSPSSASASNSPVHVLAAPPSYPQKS

T2: GST-Sav^362-607, Q9VCR6
T2 chain: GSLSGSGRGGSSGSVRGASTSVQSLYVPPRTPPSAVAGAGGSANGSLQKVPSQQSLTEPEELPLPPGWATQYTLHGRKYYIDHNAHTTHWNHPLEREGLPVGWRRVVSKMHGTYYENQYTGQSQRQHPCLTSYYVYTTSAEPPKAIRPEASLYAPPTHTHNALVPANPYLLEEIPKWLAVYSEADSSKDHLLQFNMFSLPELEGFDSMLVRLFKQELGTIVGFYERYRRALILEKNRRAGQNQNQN

T3: endogenous Sav (Salvador), Q9VCR6
T3 chain: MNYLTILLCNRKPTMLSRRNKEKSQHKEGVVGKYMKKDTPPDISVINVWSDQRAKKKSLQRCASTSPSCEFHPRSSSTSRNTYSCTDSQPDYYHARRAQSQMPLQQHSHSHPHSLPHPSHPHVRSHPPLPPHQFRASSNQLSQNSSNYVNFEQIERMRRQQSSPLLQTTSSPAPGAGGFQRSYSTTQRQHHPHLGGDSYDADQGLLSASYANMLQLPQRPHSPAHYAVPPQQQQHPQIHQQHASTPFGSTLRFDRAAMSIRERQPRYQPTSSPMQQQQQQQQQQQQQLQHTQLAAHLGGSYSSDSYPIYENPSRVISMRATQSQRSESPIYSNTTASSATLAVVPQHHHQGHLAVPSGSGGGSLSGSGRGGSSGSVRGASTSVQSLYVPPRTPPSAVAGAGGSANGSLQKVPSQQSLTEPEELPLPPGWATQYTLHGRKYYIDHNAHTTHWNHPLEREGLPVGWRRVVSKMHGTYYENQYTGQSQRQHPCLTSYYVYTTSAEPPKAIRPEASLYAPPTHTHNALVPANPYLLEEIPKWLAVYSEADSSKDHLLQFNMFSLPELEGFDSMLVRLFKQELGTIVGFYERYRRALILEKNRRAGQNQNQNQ


How the values were obtained:
[1] = molecular target: GST-Tsc1 (control GST fusion protein)
GST-Wts^68-414, Q9VA38 = molecular target: T1, GST-Wts^68-414, Q9VA38
GST-Sav^362-607, Q9VCR6 = molecular target: T2, GST-Sav^362-607, Q9VCR6
[2] = molecular target: T3, endogenous Sav (Salvador), Q9VCR6

| Protein | in vitro kinase assay (32P phosphorylation of the GST substrate) [1] | in vitro kinase assay (32P phosphorylation of the GST substrate) (GST-Wts^68-414, Q9VA38) | in vitro kinase assay (32P phosphorylation of the GST substrate) (GST-Sav^362-607, Q9VCR6) | increase in wing size (MS1096 Gal4 driver) [2] |
| --- | --- | --- | --- | --- |
| Myc-tagged Hpo (protein) MEQKLISEEDLNESEPEVTSVVDMKSPNISSSCSFFKLKKLSEESLLQPPEKVFDIMYKLGEGSYGSVYKAVHKESSSIVAIKLVPVESDLHEIIKEISIMQQCDSPYVVRYYGSYFKQYDLWICMEYCGAGSVSDIMRLRKKTLTEDEIATILSDTLQGLVYLHLRRKIHRDIKAANILLNTEGYAKLADFGVAGQLTDTMAKRNTVIGTPFWMAPEVIEEIGYDCVADIWSLGITALEMAEGKPPYGEIHPMRAIFMIPQKPPPSFREPDRWSTEFIDFVSKCLVKEPDDRATATELLEHEFIRNAKHRSILKPMLEETCAIREQQRANRSFGGVLAASQAKSLATQENGMQQHITDNAFMEDPGTLVPEKFGEYQQSSASDATMIAHAEQGVDEGTLGPGGLRNLSKAAAPAAASSAASPLDMPAVDSGTMVELESNLGTMVINSDSDDSTTAKNNDDQKPRNRYRPQFLEHFDRKNAGDGRGDEKPIATEYSPAAAEQQQQQQQQQQQQQQDEQHLASGANDLNNWEHNMEMQFQQISAINQYGLQQHQQQQQVLMAYPLMNEQLIALNNQPNLLLSNAAPMGQQGIPAAAPAQPPPAYQNQHMHTQSHAYVEGEFEFLKFLTFDDLNQRLCNIDHEMELEIEQLNKKYNAKRQPIVDAMNAKRKRQQNINNNLIKI | no signals were detected using a control substrate | a GST fusion protein containing this region of Wts was phosphorylated by Hpo | myc-tagged Hpo protein specifically phosphorylated a GST fusion protein containing the Hpo-binding region of Sav |  |
| kinase dead Hpo^K71R mutant (UAS-hpo^K71R) (protein) MSEPEVTSVVDMKSPNISSSCSFFKLKKLSEESLLQPPEKVFDIMYKLGEGSYGSVYKAVHKESSSIVAIRLVPVESDLHEIIKEISIMQQCDSPYVVRYYGSYFKQYDLWICMEYCGAGSVSDIMRLRKKTLTEDEIATILSDTLQGLVYLHLRRKIHRDIKAANILLNTEGYAKLADFGVAGQLTDTMAKRNTVIGTPFWMAPEVIEEIGYDCVADIWSLGITALEMAEGKPPYGEIHPMRAIFMIPQKPPPSFREPDRWSTEFIDFVSKCLVKEPDDRATATELLEHEFIRNAKHRSILKPMLEETCAIREQQRANRSFGGVLAASQAKSLATQENGMQQHITDNAFMEDPGTLVPEKFGEYQQSSASDATMIAHAEQGVDEGTLGPGGLRNLSKAAAPAAASSAASPLDMPAVDSGTMVELESNLGTMVINSDSDDSTTAKNNDDQKPRNRYRPQFLEHFDRKNAGDGRGDEKPIATEYSPAAAEQQQQQQQQQQQQQQDEQHLASGANDLNNWEHNMEMQFQQISAINQYGLQQHQQQQQVLMAYPLMNEQLIALNNQPNLLLSNAAPMGQQGIPAAAPAQPPPAYQNQHMHTQSHAYVEGEFEFLKFLTFDDLNQRLCNIDHEMELEIEQLNKKYNAKRQPIVDAMNAKRKRQQNINNNLIKI |  |  |  | expression of the kinase dead Hpo^K71R mutant results in 35% increase in wing size |
